This is an account of results in patent US7595173B2, “Low-cost production of peptides” (Dow Global Technologies Inc., priority 2002, dated 2009).

The assay has as its system E. coli strain BL21 (DE3). Description: Antimicrobial activity: dose-dependent inhibition of E. coli growth (standard growth inhibition assay). The assay is classed as cell-based. The protocol: The antimicrobial activity of the cleaved peptides (same samples from Examples 5 and 6) was determined by measuring the dose-dependent inhibition of E. coli growth. The samples were tested for their ability to inhibit the growth of an overnight culture inoculated with E. coli strain BL21 (DE3). AMP samples were diluted serially into water in 96 well plates. Overnight cultures of E. coli BL21 (DE3) cells were diluted 1:50 into LB broth and 250 μl aliquots were transferred into 96-well plates. Each plate was incubated at 37° C. for one hour and then 50 μl of diluted peptide (or water) were added to each well. Each plate was incubated overnight at 37° C. and then the culture density was determined by measuring the apparent absorbance at 600 nm using a Spectromax Plus plate reader.

B1: AB4: trimer comprising a leader segment, three AMPs each separated by a tripeptide linker, and a trailer segment (protein)
chain: MASMTGGQQMGRDPFAKKFAKKFKKFAKKFAKFAFAFGDPFAKKFAKKFKKFAKKFAKFAFAFGDPFAKKFAKKFKKFAKKFAKFAFAFGDPSRRSLRKSSRNLPRSLPSSHSRSVIRIRAPSTSLRPHSSTTTTTTEIRLLTKPERKLSWLLPPLSNN
modifications: Amino acid sequence of the AB4 trimer.
As to B1, the “antimicrobial activity of cleaved trimer” value (digested with formic acid at 60° C.) was “potent antimicrobial activity”.

B2: 4A dimer: dimer having two D2A21 antimicrobial peptides connected by the Gly-Asp/Pro cleavage sequence, with leader and His-tag trailer (protein)
chain: MASMTGGQQMGRDPFAKKFAKKFKKFAKKFAKFAFAFGDPFAKKFAKKFKKFAKKFAKFAFAFGDPNSSSVDKLAAALEHHHHHH
modifications: Amino acid sequence of the 4A dimer.
For B2, the antimicrobial activity entry by setting is: (Ni-purified, dialyzed, uncleaved dimer) “no detectable antimicrobial activity”; (after 50% formic acid treatment, 70° C., 24 hours) “significant antimicrobial activity”; (water-treated (control), 70° C., 24 hours) “no activity”.
